Here are results for two molecules from US20100028993A1.

Square brackets hold non-standard residues; d marks the D form. Ends that are not written are not given here. Hyp = O=C(O)[C@@H]1C[C@@H](O)CN1

In experiment [1] the target is growth hormone receptor (GHR) on GHR-expressing NIH 3T3-L1 cells (Mus musculus (Mouse)) (UniProt P16882). The experiment in a line: radioreceptor competition assay; displacement of [125I]-hGH from monolayers of GHR-expressing NIH 3T3-L1 cells.
Experiment [2] concerns the target anti-hGH-(SO)10 antibodies (1:10,000 serum dilution). The experiment in a line: competition ELISA; hGH-(SO)10-coated plates, anti-hGH-(SO)10 serum 1:10,000, 100 ug/ml (SO)10 as competitive inhibitor. (An ELISA detects its analyte on a solid surface through an enzyme-linked reagent.)

Chain of UniProt P16882 (P16882 25-650 limits assumed, form in doubt): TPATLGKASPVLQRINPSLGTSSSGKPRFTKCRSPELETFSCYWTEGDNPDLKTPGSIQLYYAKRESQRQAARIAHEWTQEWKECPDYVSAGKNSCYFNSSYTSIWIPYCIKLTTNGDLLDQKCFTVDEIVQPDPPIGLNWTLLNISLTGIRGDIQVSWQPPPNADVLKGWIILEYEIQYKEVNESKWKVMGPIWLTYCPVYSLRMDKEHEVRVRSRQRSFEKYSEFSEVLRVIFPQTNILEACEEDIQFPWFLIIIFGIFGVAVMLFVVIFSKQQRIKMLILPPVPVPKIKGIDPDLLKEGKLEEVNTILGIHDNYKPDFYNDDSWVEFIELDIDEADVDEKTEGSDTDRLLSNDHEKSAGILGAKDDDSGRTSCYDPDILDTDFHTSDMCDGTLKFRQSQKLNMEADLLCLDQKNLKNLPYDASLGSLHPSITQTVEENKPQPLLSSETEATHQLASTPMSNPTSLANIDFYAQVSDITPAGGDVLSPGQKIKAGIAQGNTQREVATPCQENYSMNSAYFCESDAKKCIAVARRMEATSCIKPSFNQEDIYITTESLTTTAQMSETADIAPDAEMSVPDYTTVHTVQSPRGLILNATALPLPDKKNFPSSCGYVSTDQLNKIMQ

“hGH-(SP)10-EGFP fusion glycoprotein (ligand)” displayed an EC50 in experiment [1] of 10 nM.

As to S[Hyp]S[Hyp]S[Hyp]S[Hyp]S[Hyp]S[Hyp]S[Hyp]S[Hyp]S[Hyp]S[Hyp] (not fully specified) [purified (SP)10 / (SO)10 glycomodule], in experiment [2], the percent inhibition was found to be 5%.

A word on the EC50: it is the concentration that produces a half-maximal response. A low value points to higher potency in that assay.
